# Source: paper PMC11180167
# What was measured:
# [1] = target: ryanodine receptor 1 (RyR1) in porcine skeletal SR membranes (pig (endogenous in porcine skeletal muscle SR)) (UniProt P16960); experiment: co-sedimentation; 1-60 nM AF488-FKBP12.6 with SR membranes (0.02 mg/ml skeletal, 0.12 mg/mL cardiac), 90 min at 37 °C, 150 mM KCl, 20 mM K-PIPES pH 7.0, 5 mM GSH, 0.1 mg/ml BSA, 30 nM free Ca2+; bound and free separated at 100,000 x g; non-specific binding with 5 µM unlabeled FKBP12.6 (skeletal) or 20 µM tacrolimus (cardiac); bound AF488 read by fluorescence
# [2] = target: cardiac muscle ryanodine receptor RyR2 in porcine cardiac SR membranes (pig (endogenous in porcine cardiac SR membranes)); experiment: co-sedimentation; cardiac SR membranes (0.12 mg/mL) incubated 90 min at 37 °C with 1-60 nM AF488-FKBP12.6 in 150 mM KCl, 20 mM K-PIPES pH 7.0, 5 mM GSH, 0.1 mg/ml BSA, 1 mM EGTA, 65 µM CaCl2 (30 nM free Ca2+); non-specific binding with 20 µM tacrolimus; bound and free separated at 100,000 x g for 25 min; fluorescence of the pellet; Kd from Hill fit, n = 5
# [3] = target: skeletal muscle ryanodine receptor RyR1 in porcine skeletal SR membranes (pig (endogenous in porcine skeletal SR membranes)) (UniProt P16960); experiment: co-sedimentation; skeletal SR membranes (0.02 mg/ml) incubated 90 min at 37 °C with 1-60 nM AF488-FKBP12.6 in 150 mM KCl, 20 mM K-PIPES pH 7.0, 5 mM GSH, 0.1 mg/ml BSA, 1 mM EGTA, 65 µM CaCl2 (30 nM free Ca2+); non-specific binding with 5 µM unlabeled FKBP12.6; bound and free separated at 100,000 x g for 25 min; fluorescence of the pellet; Kd from Hill fit, n = 3
# [4] = target: ryanodine receptor 1 (RyR1) in porcine skeletal SR membranes (pig (endogenous in porcine skeletal muscle SR)) (UniProt P16960)
Substance,Kd [1],Kd [2],Kd [3],"[^3H]ryanodine binding as an index of channel activity, 800 nM CaM, 30 nM Ca2+: increase [4]"
AF488-T6C-FKBP12.6 (natural protein),7.3 nM,,,
AF488-labeled G1C FKBP12.6 (null-cysteine background) (natural protein),,5 nM,,
AF488-labeled K44C FKBP12.6 (null-cysteine background) (natural protein),,3.7 nM,4.7 nM,
AF488-labeled Q65C FKBP12.6 (null-cysteine background) (natural protein),,2.3 nM,3.9 nM,
AF488-labeled T14C FKBP12.6 (null-cysteine background) (natural protein),,3.2 nM,3.7 nM,
AF488-labeled T85C FKBP12.6 (null-cysteine background) (natural protein),,1.9 nM,5.8 nM,
unlabeled WT-CaM (from UniProt P0DP23 1-149) (natural protein),,,,20 fold

# Next, values leading:
Kd [1],Kd [2],Kd [3],"[^3H]ryanodine binding as an index of channel activity, 800 nM CaM, 30 nM Ca2+: increase [4]",Substance
12.6 nM,,,,AF488-G1C-FKBP12.6 (natural protein)
,1.6 nM,4.9 nM,,AF488-labeled E32C FKBP12.6 (null-cysteine background) (natural protein)
,3.6 nM,6.4 nM,,AF488-labeled R49C FKBP12.6 (null-cysteine background) (natural protein)
,2.7 nM,,,AF488-labeled T6C FKBP12.6 (null-cysteine background) (natural protein)
